Series [1] concerns the target RRS1^WRKY, integrated WRKY domain of RRS1-R (residues 1194 to 1273) (Arabidopsis). The series can be described thus: ITC; AvrRps4^C (wild type or mutant) titrated into a solution of the WRKY domain; three independent experiments fitted globally to a 1:1 binding model (AFFINImeter). (Isothermal titration calorimetry measures the heat released or taken up as one component is titrated into another.)

In series [2] the target is AvrRps4^C, in planta processed C-terminal fragment of AvrRps4 (residues 134 to 221) (Pseudomonas syringae pv. pisi). Description: SEC; analytical gel filtration on a Superdex 75 10/300 column; proteins alone and after incubation at an equimolar (1:1) ratio.
The target in series [3] is RRS1^WRKY, integrated WRKY domain of RRS1-R (residues 1194 to 1273) (Arabidopsis). The description is as above.
For series [4], the target named is AtWRKY41 (Thr125 to Ile204), DNA-binding domain (Arabidopsis) (UniProt Q8H0Y8). Description: ITC; AvrRps4^C (wild type or mutant) titrated into a solution of the WRKY domain; three independent experiments fitted globally to a 1:1 binding model (AFFINImeter).
Series [5] concerns the target RRS1B^WRKY, integrated WRKY domain of RRS1B (Asn1164 to Thr1241) (Arabidopsis) (UniProt Q9FL92). The series is described as above.
Series [6] concerns the target AtWRKY41 DNA-binding domain (Thr125-Ile204) (Arabidopsis) (UniProt Q8H0Y8). The series can be described thus: ITC; MicroCal PEAQ-ITC; cell 20 uM RRS1WRKY, AtWRKY41 or RRS1BWRKY, syringe 200 uM AvrRps4C wild type or mutant; 25 C; buffer A4 (20 mM HEPES pH 7.5, 150 mM NaCl); triplicate, global fit to a 1:1 binding model (AFFINImeter).
Series [7] deals with RRS1B^WRKY, integrated WRKY domain of RRS1B (Asn1164-Thr1241) (Arabidopsis) (UniProt Q9FL92). Described as above.
For series [8], the target named is T1, RRS1 WRKY domain (RRS1-R) (UniProt C4B7M5 1194-1273).
T1 sequence: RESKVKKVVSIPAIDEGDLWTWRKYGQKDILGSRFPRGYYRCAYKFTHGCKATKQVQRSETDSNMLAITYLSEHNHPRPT
The series can be described thus: EMSA; no effector; EMSA: 10 mM Tris-Cl pH 7.5, 50 mM KCl, 1 mM DTT, 5% glycerol; SPR: 10 mM HEPES pH 7.5, 250 mM NaCl, 0.005% Tween-20, 25 C (Biacore 8K, ReDCaT). The settings on record: protein: recombinant; tags: 6xHis-MBP (pOPIN-M), cleaved with 3C; label: 5' Cy3 on forward strand; blunt.

Series [9] concerns the target T2, AtWRKY41 DNA-binding domain (UniProt Q8H0Y8 125-204).
T2 sequence: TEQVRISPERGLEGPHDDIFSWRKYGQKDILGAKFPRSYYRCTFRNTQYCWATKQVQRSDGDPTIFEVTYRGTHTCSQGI
The description is as above. The settings on record: protein: recombinant; tags: 6xHis-MBP (pOPIN-M), cleaved with 3C; label: 5' Cy3 on forward strand; blunt.

For orientation: stoichiometry N means a count of units in the complex or per binding partner. As a reminder, the Kd is the free concentration of one partner at which half of the binding sites on the other are occupied at equilibrium, for simple one-to-one binding.

Sequence of RRS1B^WRKY, integrated WRKY domain of RRS1B (Asn1164-Thr1241) (Arabidopsis) (Q9FL92 1164-1241): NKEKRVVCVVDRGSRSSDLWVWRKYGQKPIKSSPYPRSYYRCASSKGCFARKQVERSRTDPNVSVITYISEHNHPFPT
Sequence of RRS1B^WRKY, integrated WRKY domain of RRS1B (Asn1164 to Thr1241) (Arabidopsis) (Q9FL92 1164-1241): as above

AvrRps4^C Q194A (domain or fragment): the fold reduction in affinity against wild-type AvrRps4^C in series [1] came out at 7 fold.
Regarding “AvrRps4^C, in planta processed C-terminal fragment of AvrRps4 (residues 134 to 221) (domain or fragment)”, the values for the stoichiometry N in series [2], in [3] and in series [1] were 2, 1 and 1, respectively. Moreover, the Kd in series [4] is 20 nM; in series [1], 103 nM. For the same molecule, in [5], the fold weaker binding than to RRS1^WRKY is 3 fold.
For the molecule “AvrRps4^C, the in planta processed C-terminal fragment of AvrRps4 (residues 134-221) (domain or fragment)”, the values for the stoichiometry N in series [6] and in series [7] were 1.1 and 0.8, respectively.

B1: Cy3 W-box DNA (dsDNA)
DNA 1: CGCCTTTGACCAGCGC
DNA 2: GCGCTGGTCAAAGGCG
As for B1, the binding result in series [8] and in series [9] was “binds” throughout.
